Source: PMC12525431 (International Journal of Molecular Sciences, 2025)

Target: sTREM-1 (UniProt Q9NP99-2 21-150, labelled with Alexa Fluor 488 (Protein Labeling Kit))
Assay: MST; sTREM-1 labelled with Alexa Fluor 488; peptide in 16 concentrations by sequential dilution; 30 min in the dark at room temperature; Monolith NT.115, 8% IR laser power; at least three replicates
Conditions: both partners purified

sTREM-1, sequence (Q9NP99 other isoform, or with tags, fused parts or gaps): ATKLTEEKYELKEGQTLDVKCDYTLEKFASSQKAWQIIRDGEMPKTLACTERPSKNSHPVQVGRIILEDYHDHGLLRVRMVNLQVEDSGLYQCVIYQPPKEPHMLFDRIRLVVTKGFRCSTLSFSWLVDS

B1: peptide N7 (16aa peptide of Hsp70) (peptide)
peptide: SDNQPGVLIQVYEGEK
notes: Hsp70, human; Found by MALDI-TOF in a trypsin hydrolysate of recombinant human Hsp70, then synthesised; also called N7 peptide; Hsp70 N7 peptide; source: synthetic peptide (Fmoc, purified by HPLC)
Kd: 1.6 nM
